The labels stand for the following.
T1: human interleukin 13 receptor subunit alpha 2 (IL-13RA2) (human, UniProt Q14627 27-380)
T1 construct: whole, on cells; also called IL-13Rα2; CD213A2
T1 sequence (looked up): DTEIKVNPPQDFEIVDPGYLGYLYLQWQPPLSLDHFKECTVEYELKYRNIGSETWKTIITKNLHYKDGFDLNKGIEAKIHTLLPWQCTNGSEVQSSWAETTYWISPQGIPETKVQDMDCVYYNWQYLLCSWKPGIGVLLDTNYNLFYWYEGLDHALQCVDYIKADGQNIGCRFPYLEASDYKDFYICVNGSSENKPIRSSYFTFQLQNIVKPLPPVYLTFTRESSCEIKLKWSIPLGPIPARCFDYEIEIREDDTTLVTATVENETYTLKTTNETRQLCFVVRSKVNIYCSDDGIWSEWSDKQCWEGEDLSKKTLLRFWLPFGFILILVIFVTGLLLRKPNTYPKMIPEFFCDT

B1: 57F8H3F1 H4L1 hIgG1 (antibody, V domains shown)
VH: QVQLVQSGAEVVKPGASVKLSCKASGYTFTNYWMNWVKQRPGQGLEWIGRIDAYETETHYNQKFRDRAILTVDKSTSTAYMELRSLRSEDTAVYYCARGYGHYYGVDYWGQGTLVTVSS
VL: DIQMTQSPSSLSASVGDRVTITCRASENVGNFGISFVNWYQQKPGKAPKLLIYAASNLGSGVPSRFSGSGSGTDFTLTISSLQPEDFATYYCQQSKGVPWTFGQGTKVEIK
notes: humanized, hIgG1
B2: 72B4H4 H2L2 hIgG1 (antibody, V domains shown)
VH: QVQLVQSGAEVVKPGASVKVSCKASGYTFTNYWMNWVRQAPGQGLEWIGRIDAYAGETHYNQKFKDRVTMTVDTSTSTVYMELSSLRSEDTAVYYCARGYGDAYGMDHWGQGTLVTVSS
VL: DIQMTQSPSSLSASVGDRVTITCRASESVDNYGISFMNWFQQKPGKAPKLLIYAASRQGSGDPSRFSGSGSGTDFTLTISSLQPEDFATYFCQQSKEVPWTFGQGTKVEIK
notes: humanized, hIgG1
B3: 57F8H3F1 H4L4 hIgG1 (antibody, V domains shown)
VH: QVQLVQSGAEVVKPGASVKLSCKASGYTFTNYWMNWVKQRPGQGLEWIGRIDAYETETHYNQKFRDRAILTVDKSTSTAYMELRSLRSEDTAVYYCARGYGHYYGVDYWGQGTLVTVSS
VL: DIVLTQSPSSLSASVGDRATITCRASENVGNFGISFVNWFQQKPGKPPKLLIYAASNLGSGDPARFSGSGSGTDFTLTISSLQPEDFATYFCQQSKGVPWTFGGGTKLEIK
notes: humanized, hIgG1
B4: 57F8H3F1 H4L3 hIgG1 (antibody, V domains shown)
VH: QVQLVQSGAEVVKPGASVKLSCKASGYTFTNYWMNWVKQRPGQGLEWIGRIDAYETETHYNQKFRDRAILTVDKSTSTAYMELRSLRSEDTAVYYCARGYGHYYGVDYWGQGTLVTVSS
VL: DIQLTQSPSSLSASVGDRVTITCRASENVGNFGISFVNWFQQKPGKAPKLLIYAASNLGSGDPARFSGSGSGTDFTLTISSLQPEDFATYFCQQSKGVPWTFGGGTKVEIK
notes: humanized, hIgG1
B5: 72B4H4 H3L4 hIgG1 (antibody, V domains shown)
VH: QVQLVQSGAEVVKPGASVKLSCKASGYTFTNYWMNWVKQAPGQGLEWIGRIDAYAGETHYNQKFKDRATLTVDKSTSTVYMELSSLRSEDTAVYYCARGYGDAYGMDHWGQGTLVTVSS
VL: DIVLTQSPSSLSASVGDRATITCRASESVDNYGISFMNWFQQKPGKPPKLLIYAASRQGSGDPARFSGSGSGTDFTLTISSLQPEDFATYFCQQSKEVPWTFGGGTKLEIK
notes: humanized, hIgG1
B6: 72B4H4 H1L1 hIgG1 (antibody, V domains shown)
VH: QVQLVQSGAEVKKPGASVKVSCKASGYTFTNYWMNWVRQAPGQGLEWMGRIDAYAGETHYNQKFKDRVTMTRDTSTSTVYMELSSLRSEDTAVYYCARGYGDAYGMDHWGQGTLVTVSS
VL: DIQMTQSPSSLSASVGDRVTITCRASESVDNYGISFMNWYQQKPGKAPKLLIYAASRQGSGVPSRFSGSGSGTDFTLTISSLQPEDFATYYCQQSKEVPWTFGQGTKVEIK
notes: humanized, hIgG1
B7: 72B4H4 H1L4 hIgG1 (antibody, V domains shown)
VH: QVQLVQSGAEVKKPGASVKVSCKASGYTFTNYWMNWVRQAPGQGLEWMGRIDAYAGETHYNQKFKDRVTMTRDTSTSTVYMELSSLRSEDTAVYYCARGYGDAYGMDHWGQGTLVTVSS
VL: DIVLTQSPSSLSASVGDRATITCRASESVDNYGISFMNWFQQKPGKPPKLLIYAASRQGSGDPARFSGSGSGTDFTLTISSLQPEDFATYFCQQSKEVPWTFGGGTKLEIK
notes: humanized, hIgG1
B8: 57F8H3F1 H4L2 hIgG1 (antibody, V domains shown)
VH: QVQLVQSGAEVVKPGASVKLSCKASGYTFTNYWMNWVKQRPGQGLEWIGRIDAYETETHYNQKFRDRAILTVDKSTSTAYMELRSLRSEDTAVYYCARGYGHYYGVDYWGQGTLVTVSS
VL: DIQMTQSPSSLSASVGDRVTITCRASENVGNFGISFVNWFQQKPGKAPKLLIYAASNLGSGDPSRFSGSGSGTDFTLTISSLQPEDFATYFCQQSKGVPWTFGQGTKVEIK
notes: humanized, hIgG1
B9: 72B4H4 H1L3 hIgG1 (antibody, V domains shown)
VH: QVQLVQSGAEVKKPGASVKVSCKASGYTFTNYWMNWVRQAPGQGLEWMGRIDAYAGETHYNQKFKDRVTMTRDTSTSTVYMELSSLRSEDTAVYYCARGYGDAYGMDHWGQGTLVTVSS
VL: DIQLTQSPSSLSASVGDRVTITCRASESVDNYGISFMNWFQQKPGKAPKLLIYAASRQGSGDPARFSGSGSGTDFTLTISSLQPEDFATYFCQQSKEVPWTFGGGTKVEIK
notes: humanized, hIgG1
B10: 72B4H4 H2L4 hIgG1 (antibody, V domains shown)
VH: QVQLVQSGAEVVKPGASVKVSCKASGYTFTNYWMNWVRQAPGQGLEWIGRIDAYAGETHYNQKFKDRVTMTVDTSTSTVYMELSSLRSEDTAVYYCARGYGDAYGMDHWGQGTLVTVSS
VL: DIVLTQSPSSLSASVGDRATITCRASESVDNYGISFMNWFQQKPGKPPKLLIYAASRQGSGDPARFSGSGSGTDFTLTISSLQPEDFATYFCQQSKEVPWTFGGGTKLEIK
notes: humanized, hIgG1
B11: 72B4H4 H4L1 hIgG1 (antibody, V domains shown)
VH: QVQLVQSGAEVVKPGASVKLSCKASGYTFTNYWMNWVKQRPGQGLEWIGRIDAYAGETHYNQKFKDRAILTVDKSTSTAYMELRSLRSEDTAVYYCARGYGDAYGMDHWGQGTLVTVSS
VL: DIQMTQSPSSLSASVGDRVTITCRASESVDNYGISFMNWYQQKPGKAPKLLIYAASRQGSGVPSRFSGSGSGTDFTLTISSLQPEDFATYYCQQSKEVPWTFGQGTKVEIK
notes: humanized, hIgG1
B12: 72B4H4 H2L1 hIgG1 (antibody, V domains shown)
VH: QVQLVQSGAEVVKPGASVKVSCKASGYTFTNYWMNWVRQAPGQGLEWIGRIDAYAGETHYNQKFKDRVTMTVDTSTSTVYMELSSLRSEDTAVYYCARGYGDAYGMDHWGQGTLVTVSS
VL: DIQMTQSPSSLSASVGDRVTITCRASESVDNYGISFMNWYQQKPGKAPKLLIYAASRQGSGVPSRFSGSGSGTDFTLTISSLQPEDFATYYCQQSKEVPWTFGQGTKVEIK
notes: humanized, hIgG1
B13: 72B4H4 H1L2 hIgG1 (antibody, V domains shown)
VH: QVQLVQSGAEVKKPGASVKVSCKASGYTFTNYWMNWVRQAPGQGLEWMGRIDAYAGETHYNQKFKDRVTMTRDTSTSTVYMELSSLRSEDTAVYYCARGYGDAYGMDHWGQGTLVTVSS
VL: DIQMTQSPSSLSASVGDRVTITCRASESVDNYGISFMNWFQQKPGKAPKLLIYAASRQGSGDPSRFSGSGSGTDFTLTISSLQPEDFATYFCQQSKEVPWTFGQGTKVEIK
notes: humanized, hIgG1
B14: 72B4H4 H3L2 hIgG1 (antibody, V domains shown)
VH: QVQLVQSGAEVVKPGASVKLSCKASGYTFTNYWMNWVKQAPGQGLEWIGRIDAYAGETHYNQKFKDRATLTVDKSTSTVYMELSSLRSEDTAVYYCARGYGDAYGMDHWGQGTLVTVSS
VL: DIQMTQSPSSLSASVGDRVTITCRASESVDNYGISFMNWFQQKPGKAPKLLIYAASRQGSGDPSRFSGSGSGTDFTLTISSLQPEDFATYFCQQSKEVPWTFGQGTKVEIK
notes: humanized, hIgG1
B15: 72B4H4 H3L1 hIgG1 (antibody, V domains shown)
VH: QVQLVQSGAEVVKPGASVKLSCKASGYTFTNYWMNWVKQAPGQGLEWIGRIDAYAGETHYNQKFKDRATLTVDKSTSTVYMELSSLRSEDTAVYYCARGYGDAYGMDHWGQGTLVTVSS
VL: DIQMTQSPSSLSASVGDRVTITCRASESVDNYGISFMNWYQQKPGKAPKLLIYAASRQGSGVPSRFSGSGSGTDFTLTISSLQPEDFATYYCQQSKEVPWTFGQGTKVEIK
notes: humanized, hIgG1
B16: 72B4H4 H3L3 hIgG1 (antibody, V domains shown)
VH: QVQLVQSGAEVVKPGASVKLSCKASGYTFTNYWMNWVKQAPGQGLEWIGRIDAYAGETHYNQKFKDRATLTVDKSTSTVYMELSSLRSEDTAVYYCARGYGDAYGMDHWGQGTLVTVSS
VL: DIQLTQSPSSLSASVGDRVTITCRASESVDNYGISFMNWFQQKPGKAPKLLIYAASRQGSGDPARFSGSGSGTDFTLTISSLQPEDFATYFCQQSKEVPWTFGGGTKVEIK
notes: humanized, hIgG1
B17: 72B4H4 H4L2 hIgG1 (antibody, V domains shown)
VH: QVQLVQSGAEVVKPGASVKLSCKASGYTFTNYWMNWVKQRPGQGLEWIGRIDAYAGETHYNQKFKDRAILTVDKSTSTAYMELRSLRSEDTAVYYCARGYGDAYGMDHWGQGTLVTVSS
VL: DIQMTQSPSSLSASVGDRVTITCRASESVDNYGISFMNWFQQKPGKAPKLLIYAASRQGSGDPSRFSGSGSGTDFTLTISSLQPEDFATYFCQQSKEVPWTFGQGTKVEIK
notes: humanized, hIgG1
B18: 72B4H4 H2L3 hIgG1 (antibody, V domains shown)
VH: QVQLVQSGAEVVKPGASVKVSCKASGYTFTNYWMNWVRQAPGQGLEWIGRIDAYAGETHYNQKFKDRVTMTVDTSTSTVYMELSSLRSEDTAVYYCARGYGDAYGMDHWGQGTLVTVSS
VL: DIQLTQSPSSLSASVGDRVTITCRASESVDNYGISFMNWFQQKPGKAPKLLIYAASRQGSGDPARFSGSGSGTDFTLTISSLQPEDFATYFCQQSKEVPWTFGGGTKVEIK
notes: humanized, hIgG1

For the test, the target named is T1, human interleukin 13 receptor subunit …. The experiment in a line: FACS on A375 cells. How it is done:
A375 cells that endogenously expressed IL-13RA2, were harvested from flasks. 100 μl of 1×10⁶ cells/ml of cells were incubated with primary humanized antibodies in 4-fold serial dilutions starting from 200 nM to 0.003 nM for 30 minutes on ice. After being washed with 200 μl of FACS buffer twice, cells were incubated with secondary antibody for 30 minutes on ice. Cells were washed with 200 μl of FACS buffer twice and analyzed by FACS.
The EC50 is the midpoint of the concentration-response curve. As to B1, the concentration giving a half-maximal response (EC50) stood at 0.42 nM and the “Top (MFI)” value is 7350 MFI.

In the case of B2, the concentration for a half-maximal effect (EC50) is 1.48 nM and the “Top (MFI)” value worked out at 8700 MFI.

B3: it took 0.91 nM to reach a half-maximal effect (EC50) and the “Top (MFI)” value was found to be 7270 MFI.

Turning to B4, the concentration giving a half-maximal response (EC50) stood at 0.8 nM and the “Top (MFI)” value amounted to 7180 MFI.

With B5, the half-maximal effective concentration (EC50) is 1.36 nM and the “Top (MFI)” value stood at 8770 MFI.

B6: a half-maximal response (EC50) required 0.54 nM and the “Top (MFI)” value stood at 8440 MFI.

Turning to B7, the 50% effective concentration (EC50) was determined as 0.98 nM and the “Top (MFI)” value worked out at 9040 MFI.

As to B8, it took 0.75 nM to reach a half-maximal effect (EC50) and the “Top (MFI)” value was determined as 7340 MFI.

Turning to B9, it took 1 nM to reach a half-maximal effect (EC50) and the “Top (MFI)” value amounted to 8900 MFI.

In the case of B10, the 50% effective concentration (EC50) worked out at 1.18 nM and the “Top (MFI)” value was 8630 MFI.

Take B11: the EC50 worked out at 0.552 nM and the “Top (MFI)” value came out at 8270 MFI.

Take B12: the EC50 amounted to 2.75 nM and the “Top (MFI)” value amounted to 8360 MFI.

Regarding B13, the 50% effective concentration (EC50) was 0.81 nM and the “Top (MFI)” value is 8540 MFI.

For B14, it took 1.44 nM to reach a half-maximal effect (EC50) and the “Top (MFI)” value was found to be 8550 MFI.

Turning to B15, the EC50 was 1.14 nM and the “Top (MFI)” value was 8830 MFI.

Regarding B16, the concentration giving a half-maximal response (EC50) came out at 1.66 nM and the “Top (MFI)” value was found to be 8780 MFI.

In the case of B17, the EC50 stood at 0.976 nM and the “Top (MFI)” value was 8610 MFI.

On to B18, for which the concentration for a half-maximal effect (EC50) amounted to 0.83 nM and the “Top (MFI)” value came out at 8420 MFI.

Source of the values: US20250163164A1 (LANOVA MEDICINES DEVELOPMENT, published 2025).
